Measurements as given in paper PMC4019675 (Nature cell biology, 2013).

T1: FtsA (wild-type, untagged) (E. coli (PCR amplified from MG1655 …, UniProt P0ABH0 1-420))
T1 sequence (looked up): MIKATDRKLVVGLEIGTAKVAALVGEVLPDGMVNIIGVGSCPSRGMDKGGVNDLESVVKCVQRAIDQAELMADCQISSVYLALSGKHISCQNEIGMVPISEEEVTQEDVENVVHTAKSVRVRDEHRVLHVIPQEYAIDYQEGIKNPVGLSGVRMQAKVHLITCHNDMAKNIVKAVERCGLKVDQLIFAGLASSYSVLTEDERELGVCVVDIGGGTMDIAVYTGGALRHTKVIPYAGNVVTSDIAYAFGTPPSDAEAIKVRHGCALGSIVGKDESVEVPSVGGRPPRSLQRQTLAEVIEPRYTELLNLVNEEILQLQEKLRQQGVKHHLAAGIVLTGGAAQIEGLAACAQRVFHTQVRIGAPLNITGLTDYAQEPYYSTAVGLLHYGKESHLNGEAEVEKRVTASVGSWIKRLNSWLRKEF

B1: FtsZ (untagged) (natural protein, UniProt P0A9A6 1-383, looked up)
chain: MFEPMELTNDAVIKVIGVGGGGGNAVEHMVRERIEGVEFFAVNTDAQALRKTAVGQTIQIGSGITKGLGAGANPEVGRNAADEDRDALRAALEGADMVFIAAGMGGGTGTGAAPVVAEVAKDLGILTVAVVTKPFNFEGKKRMAFAEQGITELSKHVDSLITIPNDKLLKVLGRGISLLDAFGAANDVLKGAVQGIAELITRPGLMNVDFADVRTVMSEMGYAMMGSGVASGEDRAEEAAEMAISSPLLEDIDLSGARGVLVNITAGFDLRLDEFETVGNTIRAFASDNATVVIGTSLDPDMNDELRVTVVATGIGMDKRPEITLVTNKQVQQPVMDRYQQHGMAPLTQEQKPVAKVVNDNAPQTAKEPDYLDIPAFLRKQAD
B2: His-Δ22-ZipA (domain or fragment)
chain: not shown

Tests used:
[1] = target: T1, FtsA (wild-type, untagged); test: co-sedimentation
[2] = target: B1; test: co-sedimentation

| binding result [1] | binding result [2] | Binder |
| --- | --- | --- |
| binds | – | B1 |
| – | binds | B2 |
